Assay: yeast display, Sf9 membrane polyspecificity reagent, FACS + sequencing; frameworks hold sequencing errors
In short: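 Sorting gates, low and high (top ~1%), were placed on anti-HA fluorescence to track expression and on streptavidin fluorescence to track reagent binding. A clone's polyreactivity label is taken from the gate it came out of. The reagent was 10% biotinylated, detergent-solubilized Sf9 membrane, applied for 1 hour at 4 °C to galactose-induced yeast display cells.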

With “QVQLVESGGGLVQAGGSHRLSCAASGSIFRWYAMGWYRQAPGKERELVAAITSGGGTNYADSVKGRFTISRDNAKNTVYIQMNCLKPEDTAVYYCNAAAWLRWGYRGGFWRYDYWGQGTQVTVSS” as the sequence, how does the “polyreactivity (PSR sort gate)” value read?
Its value is “high polyreactivity”.

With “QVQLVESGGGLVQAGGSLRLSCAASGSIFFYNAMGWYRQAPGKERELVAAISRGGNTNYADSVKGRFTISRDNANNTVYLQMNSLKPEDTAVYYCNAESLSGAHGYWGQGTQVTVSS” as the sequence, how does the “polyreactivity (PSR sort gate)” value read?
Its value is “low polyreactivity”.

For “QVQLVESGGGLVQAGGSLRLSCAASGFILKYYAMGWYRQAHGKERELVAAITVSGGSTYYADSVKGRFTISRDNAKNTFYLQMNSLKPEDTAVYYCNADYPRGGAGLLDYWGQGTQVTVSS”, which “polyreactivity (PSR sort gate)” value is on record?
Its value is “low polyreactivity”.

Which “polyreactivity (PSR sort gate)” value does the source give for “QVQLVESGGGLVQAGGSLRLSCAASVSTFFRNAMGWYRQAPGKERELVAAISKSGTSTYYADSVKGRFTISRDNAKNTVYLQMNSLKPEDTAVYYCAKYGFSYPQSYAYYYWGQGTQVTVSS” here?
The value was “high polyreactivity”.

With “QVQLVESGGCLVQAGGSLRLSCAASGRIFYIYAMGWYRQAPGKERELVAAITNGGSTNYADSVKGRFTISRDNAKNTVYLQMNSLKPEDTAVYYCAASVGTYAYGRTVYRYDYWGQGTQVTVSS” as the sequence, how does the “polyreactivity (PSR sort gate)” value read?
The value was “low polyreactivity”.

Which “polyreactivity (PSR sort gate)” value does the source give for “QVQLVESGGGLVQAGGSLRLSCAASGFTFSYYAMGWYRQAPGKERELVAAISWSGTATYYADSVKGRFTISRDNAKNTVYLQMNSLKPEDTAVYYCAAGYSASGKVDYRGQGTQVTVSS” here?
Its value is “high polyreactivity”.

With “QVQHVESGGCLVQAGGSLRLSCAASGRIFRGYAMGWYRQAPGKERELVAAISSRGSTYYADSVKGRFTNSRDNAKNTVYLQMNSLKPEDTAVYYCAKSEYARLSGFRYRTGYNYWGQGTQVTVSS” as the sequence, how does the “polyreactivity (PSR sort gate)” value read?
Its value is “high polyreactivity”.

Which “polyreactivity (PSR sort gate)” value does the source give for “QVQLVESGGGLVQAGGSLRLTCAASGSTSGQNAMGRYRQAPGNERELVAAISSSAGSTYADSVKGRFTISRDNAKNTVYLQMNSLKPEDTAVYYCNVPYYYTRGSYGYWGQGTQVTVSS” here?
The value was “low polyreactivity”.

Which “polyreactivity (PSR sort gate)” value does the source give for “QVQLVESGGGLVQAGGSLRLSCAASGRTFRVYVMGWYRQAPGKERELVAAIRSDASTNYADSVKGRFTISRDNAKNTVYLQMISLKPEDTAFYYCAARRGKSAGGYGDYYWGQGTQVTVSS” here?
Its value is “high polyreactivity”.

Which “polyreactivity (PSR sort gate)” value does the source give for “QVQLVESGGGLDQAGGSLRLSSAASGSIFRGNAMGWYRQAPGKERELVAGINRAGSTKYADSVKGRFTISRDNAKNTVYLQMNSLIPEDTAVYYCAAVRYERGLWSDYWGQGTQVTVSS” here?
Its value is “high polyreactivity”.

Which “polyreactivity (PSR sort gate)” value does the source give for “QVKIVESGGGLVQAGGSLRLSCAATGITFAWYAMGWYRQAPGKERELVAAITWSGDSTYYADSVKGRFTISRDNAKNTVYLQMKSLKPEDTAVYYCAAEGLVFWFGTPYDYWGQGTQVTVSS” here?
Its value is “high polyreactivity”.

For “QVQLVESGGGLVQAGGSLRLSCAASGFTFRYYAMGWYRQAPGKERELVAAISYNGGSTYYADSVKGRFTISRDNAKNTVYLQMNSLKPEDTAVYYCAADGGRRFGYWGQGTQVTVSS”, which “polyreactivity (PSR sort gate)” value is on record?
The value was “high polyreactivity”.

For “QVQLVESGGGLVQAGGSLRLSCAASGYIILGYAMGWYRQAPGKERELVAVINWSGGRTRYADSVKGRFTISRDNAKNTVYLQMNSLKPEDTAVYYCAAERSITYDYWGQGTQVTVSS”, which “polyreactivity (PSR sort gate)” value is on record?
Its value is “high polyreactivity”.

Which “polyreactivity (PSR sort gate)” value does the source give for “QVQLLESGGGLVQAGGSLRLSCAASGFTFYRYAMGWYRQAPGTERELVAVISRGGNTYYADSVKGRFTISRDNAKNTVYLQMNSLKPEDTAVYDCAVYYPRGVSGGRFTRYDYWGQGTQVTVSS” here?
Its value is “high polyreactivity”.

Which “polyreactivity (PSR sort gate)” value does the source give for “QVQLVESAGGLVQAGGCLRLSCAACGSIFLYNAMGWYRQAPVKERELVAGITGGGGTNYADSVKGRFTISRDNAKNTVYLQMNSLKPEDTAVYYCAADPSGQFPYSYYNYDYDYWGQGTQVTVSS” here?
Its value is “low polyreactivity”.

For “QVQLVESGGGLVQAGGSLRLSCAASGSIFPAYTMGWYRQAPGKERELVAAIPYSGARSTYYADSVKGRVTNSRDNAKNTVYLQMNSLKPEDTAVYYCNARDRARYFYDMDYWGQGTQVTVSS”, which “polyreactivity (PSR sort gate)” value is on record?
Its value is “low polyreactivity”.

For “QVQLLESGGGLVQAGGSLRLSCAASGRNFSRYAMGWYRQAPGKERELVAGITRSGTTTYYADSVKGRFTISRDNAKNTVYLQMNSLKPEDTAVYYCAAPPIRPNLYDYWGQGTQVTVSS”, which “polyreactivity (PSR sort gate)” value is on record?
The value was “high polyreactivity”.

With “QVQLVESGGGLVQAGGSLRLSCAASGRTFGSKALAWYRPAPGKERELVAAITGGGSTYYADSVKGRFTISRDNAKNTVYLQMNSLKPEDTAVYYCAARGTSGWYRYGYWGQGTQVTVSS” as the sequence, how does the “polyreactivity (PSR sort gate)” value read?
The value was “high polyreactivity”.

Which “polyreactivity (PSR sort gate)” value does the source give for “QVQLVESGGGLVQAGGSLRLSCAASGFTFAAYAMGWYRQAPVKERELVAAITNGGSTKYADSVKGRFTISRDNAKNTVYVQMNSLKPEDTSVYYCNADGFDLNVTNVSALEYDSWGQGTQVTVSS” here?
Its value is “low polyreactivity”.

With “QVQLVESGGGLVQAGGSLRLSCDASGSILSFYVMGWYIQAPGKERELVAAINLSSGRTYYADSVKGRFTISRDNAKNTVYLQMNSLKPEDTAVYYCAKQVFGYGIVNNGDYWGQGTQVTVSS” as the sequence, how does the “polyreactivity (PSR sort gate)” value read?
The value was “high polyreactivity”.

With “QVQLVESGGGLVQAGGSLRLSCAASGNTLASYAMGWYRQAPGKEREFVAAITNRSGSTYYADSVKGRFTISRDNAKNTVYLQMNSLKPEDTAVYYCAARYGRRSGQMGYWGQGTQVTVSS” as the sequence, how does the “polyreactivity (PSR sort gate)” value read?
The value was “high polyreactivity”.

For “QVQLVESGGGLVQAGGSLSLSCAASGNIFSYNAMGWYRQAPGKERELVAAITWAGSTYADSVKGRFTISRDNAKNTVFLQRNSLKPEDTAVYYCNAANDSGYDYWGQGTQVTVSS”, which “polyreactivity (PSR sort gate)” value is on record?
The value was “low polyreactivity”.

With “QVQLVESGGGLVQAGGSLRFSCAASGSIFDYNAMGWYRQAPGKERELVAAIDWSGSSTYYADSVKGRFTISRDNAKNTVYLQMNSLKPEDTAVYYCNALAYYGMDYWGQGTQVTVSS” as the sequence, how does the “polyreactivity (PSR sort gate)” value read?
Its value is “low polyreactivity”.

Which “polyreactivity (PSR sort gate)” value does the source give for “QVQLVESGGGLVQAGGSLRLSCAASGSTFKVNAMGWYRQAPGKERELVAAISRGGSTYADSVKGRFTISRDNAKNTVYLQMNSLKPEDTAVYYCAAKSRYFQPDEYYYWGQVTQVTVSS” here?
Its value is “high polyreactivity”.

Which “polyreactivity (PSR sort gate)” value does the source give for “QVQLVESGGGLVQAGGSLRLSCAASGRIFYYNVMGWYRQAPGKEREFVAAISTRTGSTYYADSVKGRFTISRDNAKNTVYLQMNSLKPEDTAVYYCAAPYRAYSYDYWGQGTQVTVSS” here?
Its value is “high polyreactivity”.

With “QVQLVESGGGLVQAGGSLRLSCAASGSIFSQYAMGWYRQAPGKERELVAAITYGGGSTYYADSVKGRFTISRDNAKNTVYFQMNSLKPEDTAVYYCAKEFKYWGYPYDYWGQGTQVTVSS” as the sequence, how does the “polyreactivity (PSR sort gate)” value read?
The value was “low polyreactivity”.

For “QVQLVESGGALVQAGASLRLSCAASGFTFWDYAMGWYRQAPGKERELVAAISDNDGSTDYADSVKGRFTISRDIAKNSVYLQMNSLKPEDTAVYSCNAEIELPSKVGDYWGQGTLVTVSS”, which “polyreactivity (PSR sort gate)” value is on record?
Its value is “low polyreactivity”.

With “QVQLVESGGGLVQAGGSLRLSCAASVRSFRWYTMGWYRQAPGKERELVATISWRGGSTSYADSVKGRFTISRDNAKNTVYLQMNSLKPEDNAVYYCNAVYLWWAYDYWGQGTQVTVSS” as the sequence, how does the “polyreactivity (PSR sort gate)” value read?
Its value is “high polyreactivity”.

Which “polyreactivity (PSR sort gate)” value does the source give for “QVQLVESGGGLVQAGGSLRLSCAASGSTFPLYAMGLYRQAPGKERELVAAITGGGGRTYYADSVKGRFTISRDIAKNTVYLQMNSLKPEYTAVYYCNAVVYLTNYWYDYWAQGTQVTVSS” here?
Its value is “low polyreactivity”.

With “QDQLVESGGGFVQARGSLRLSCAACGFIFYANAMGWYRQAPGKERELVAGISWSGTSTYYADSVKGRFTISRDNAKNTVYLQMNSLKPEDTAVYYCNRVFYHFDVDRYDYWGQGTQVTVSS” as the sequence, how does the “polyreactivity (PSR sort gate)” value read?
Its value is “low polyreactivity”.

For “QVQLVESGGGLVQAGGSLRLSCAASGRTFSRNAMGWYRQAPGKERELVATITSDGSTNYADSVKGRFTISRDNAKNTVYLQMNSLKPEDTAVYYCAAGEQSSIIGAHDYWGQGTQVTVSS”, which “polyreactivity (PSR sort gate)” value is on record?
The value was “low polyreactivity”.

For “QVQLVESGGGLVQAGGSLRLSCAASGSTFLYYAMGWYREAPGKERELVAVISWSGVSTYYADSVKGRFTISRDNAKNTVYLQMKSLKPEDTAVYYCNTGNHYIRTYGYWGQGTQVTVSS”, which “polyreactivity (PSR sort gate)” value is on record?
The value was “low polyreactivity”.

Which “polyreactivity (PSR sort gate)” value does the source give for “QLQLVESGAGRVQAGGSLRLRCAAAGSILRDNAMVWYRQAPWKEREFVADIRGSDDTTYYADSVKGRFTISRDNGKNSVYLQMNSLKPEDTAVYYSNRDDAWQEYDYWGQGTQVTVSS” here?
Its value is “low polyreactivity”.

With “QVQLVESGGGLVQAGGSLRLSCAASGLTFGRYAMGWYRQAPGKERELVAAITARVGRTYYADSVKGRFTISRDNAKNTVYLQMNSLKPEDTAVYYCAAGPSYYWYSHEKYDYWGQGTQVTVSS” as the sequence, how does the “polyreactivity (PSR sort gate)” value read?
The value was “high polyreactivity”.

Which “polyreactivity (PSR sort gate)” value does the source give for “QVQLGESGGALVQAGGSLRLSCAASGFTFCPYAMGWYRQAPGKERELDAAISQSGGRTSYADSVKGRFTISRDNAKNTVYLQMNSLKPEDTAVYYCAKRAYGYRSIYRMDYWGQGTLVTVSS” here?
Its value is “high polyreactivity”.

With “QVQLVESGGRLVQAGGSLRLSCAASGSTIPYYTMGWYRQAPGKERELVAAIRYSGSSTYYADSVKGRFTISRDNAKNTVYLQMNSLKPEDTAVYYCAKTLWRRRGDRRYRVIEMDHWGQGTQVTVSS” as the sequence, how does the “polyreactivity (PSR sort gate)” value read?
The value was “low polyreactivity”.

Which “polyreactivity (PSR sort gate)” value does the source give for “QVQLVESGGGLVQAGGSLRLSCAASGSTFSDYVMGWYRQAPGKERELVAAISWSGDRTYYADSVKGRFTISRDNAKNTVYLQMNSLKPEETAVYYCAAEYAPSEPSYYYGYDYWGQGTQVTVSS” here?
Its value is “high polyreactivity”.

Which “polyreactivity (PSR sort gate)” value does the source give for “QVQLVESGGGLVQAGGSLRLSCAASGSIFSTYAMGWYRQAPGKERELVAAISSSSGSTYYADSVKGRFTISRDNAKNTVYLQMNSLKPEDTAVYYCAAAYSQYSTSYYYWGQGTQVTVSS” here?
Its value is “high polyreactivity”.

With “QVQLVESGGGLVQAGGSLRLSCAASGRIFYQNVMGWYRQAPGKERELVAAITRRDVTTYADSVKGRFTISRDNAKNTVYLQMNSLKPEDTAVYYCNAVYYNWIGFDYWGQGTQVTVSS” as the sequence, how does the “polyreactivity (PSR sort gate)” value read?
The value was “low polyreactivity”.

For “QVHLVESGGGLVQAGGSLRLSCAASGFIFVRNAMGWYSQAPGKEREFVAAITRSGGSTYYADSVKVRFTISRDNAKNTVYLQMYSLKPEDTAVYYCAVLYHSRDSYTYRDEDYWGQGTQVTVSS”, which “polyreactivity (PSR sort gate)” value is on record?
The value was “low polyreactivity”.

Which “polyreactivity (PSR sort gate)” value does the source give for “QVQLVESGGGLVQAGGSLRLRCAASGIIFTGYALGWYRQAPGKESELVAAISRSGGGTYYADSVKARFTISRDNAKNTVYLQINSLKPEDTAVYYCNRLRIAASYWQAYDYWGQGTQVTLSS” here?
Its value is “high polyreactivity”.
